# Experimental data taken from ChEMBL document CHEMBL3596158, “Exploring the substrate promiscuity of an antibiotic inactivating enzyme” (Medchemcomm, 2014).
# T1: Microcin C7 self-immunity protein MccF (Escherichia coli) (UniProt Q47511)
# T1 sequence (whole entry): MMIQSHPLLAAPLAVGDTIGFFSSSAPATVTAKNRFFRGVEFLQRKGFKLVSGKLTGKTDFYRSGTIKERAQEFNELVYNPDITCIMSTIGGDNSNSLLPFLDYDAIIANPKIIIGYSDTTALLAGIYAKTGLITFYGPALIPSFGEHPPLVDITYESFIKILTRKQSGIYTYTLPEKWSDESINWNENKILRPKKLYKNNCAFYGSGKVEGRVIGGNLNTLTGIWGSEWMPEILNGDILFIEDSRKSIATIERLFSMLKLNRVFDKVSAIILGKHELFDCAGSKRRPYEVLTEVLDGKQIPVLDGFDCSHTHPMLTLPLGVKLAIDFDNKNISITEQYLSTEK
# Key:
# [1] = biological target: T1, Microcin C7 self-immunity protein MccF (Escherichia coli); assay: Ratio of compound Kcat/Km to ESA Kcat/Km for wild type Escherichia coli MccF expressed in Escherichia coli Rosetta2 (DE3)
# [2] = substrate: Nc1nc2c(ncn2[C@@H]2O[C@H](COS(=O)(=O)NC(=O)[C@@H](N)CCC(=O)O)[C@@H](O)[C@H]2O)c(=O)[nH]1; assay: (§1) Substrate activity at wild type Escherichia coli MccF expressed in Escherichia coli Rosetta2 (DE3) by bovine glutamate dehydrogenase-coupled continuous assay
# [3] = substrate: Nc1ncnc2c1ncn2[C@@H]1O[C@H](COS(=O)(=O)NC(=O)[C@@H](N)CCC(=O)O)[C@@H](O)[C@H]1O; assay: as §1
# [4] = substrate: N[C@@H](CCC(=O)O)C(=O)NS(=O)(=O)OC[C@H]1O[C@@H](n2cnc3c(=O)[nH]cnc32)[C@H](O)[C@@H]1O; assay: as §1
Ratio [1],Molecule,Km [2],kcat [2],Km [3],kcat [3],Km [4],kcat [4]
1.5,Nc1nc2c(ncn2[C@@H]2O[C@H](COS(=O)(=O)NC(=O)[C@@H](N)CCC(=O)O)[C@@H](O)[C@H]2O)c(=O)[nH]1,–,–,–,–,–,–
0.6,N[C@@H](CCC(=O)O)C(=O)NS(=O)(=O)OC[C@H]1O[C@@H](n2cnc3c(=O)[nH]cnc32)[C@H](O)[C@@H]1O,–,–,–,–,–,–
–,"Microcin C7 self-immunity protein MccF (Escherichia coli), Q47511 (protein) MMIQSHPLLAAPLAVGDTIGFFSSSAPATVTAKNRFFRGVEFLQRKGFKLVSGKLTGKTDFYRSGTIKERAQEFNELVYNPDITCIMSTIGGDNSNSLLPFLDYDAIIANPKIIIGYSDTTALLAGIYAKTGLITFYGPALIPSFGEHPPLVDITYESFIKILTRKQSGIYTYTLPEKWSDESINWNENKILRPKKLYKNNCAFYGSGKVEGRVIGGNLNTLTGIWGSEWMPEILNGDILFIEDSRKSIATIERLFSMLKLNRVFDKVSAIILGKHELFDCAGSKRRPYEVLTEVLDGKQIPVLDGFDCSHTHPMLTLPLGVKLAIDFDNKNISITEQYLSTEK",33.4 µM,0.582 s⁻¹,51.6 µM,0.583 s⁻¹,90.9 µM,0.635 s⁻¹
